Measurements reported in US20030157090A1 (published 2003).
Substitutions are numbered along the chain they refer to.

B1: scFv(P5) (scFv)
scFv: QVQLQESGGDLVQPGGSLKLSCAVSGFSLTGYGVNWVRQTPDKRLEWVAMIWGDGNTDYNSSVKGRFTISKDNAKSTVYLQMSSLKSEDTAMYYCARERDYRLDYWGQGTTVTVSSGGGGSGGGGSGGGGSDIELTQSPASLAVSLGQRATISCRASGNIHNYLAWYQQKPGQPPKLLIYYTTTLADGIPARFSGSGSGTDYTLTINPVEADDVATYYCQHFWSTPRTFGGGTKLEIKR
notes: Last product of mutagenesis, with the highest number of substitutions; also called P5 mutant; LYS/P5
B2: scFv(CMV-4G) (scFv)
scFv: QVQLQESGGDLVQPGGSLKLSCAASGFTFSSYGMSWVRQTPDKRLELVATINSNGGSTFYPDSVKGRFTISRDNAKNTLYLQMSSLKSEDTAMYYCARNNWSFDYWGQGTTVTVSSGGGGSGGGGSGGGGSDIELTQSPASLAVSLGQRATISCRASESVHNYMHWYQQKPGQPPKLLIYRALNLESGIPARFSGSGSRTDFTLTINPVEADDVATYYCQQGQRKPWTFGGGTKLEIKR
B3: scFv(LYS-11E) (scFv)
scFv: B2 scFv with N99T, N100R, W101P, S102Y, G222V, Q223T, R224Y
notes: also called scFv(HEL-11E)
B4: scFv(CMV-4B) (scFv)
scFv: B2 scFv with W101Y, Q223R, K225A

Assays:
lysozyme (Sigma) [1] = target: T1, lysozyme (Sigma) (chicken, UniProt P00698 19-147); experiment: ELISA on coated lysozyme, E. coli periplasmic extracts normalized for total protein
T1 construct: also called lysozime; Lisozyme

[2] = target: cucumber mosaic virus (CMV), purified (cucumber mosaic virus); experiment: SPR (BIAcoreX), purified CMV amine-coupled to a CM5 chip, scFv in flow; kD=koff/kon
lysozyme (Sigma) [3] = target: T1, lysozyme (Sigma); experiment: column 'Specificity' of Table I; clone selected from the monoscaffold phage library and screened by ELISA

T1 sequence (P00698 19-147): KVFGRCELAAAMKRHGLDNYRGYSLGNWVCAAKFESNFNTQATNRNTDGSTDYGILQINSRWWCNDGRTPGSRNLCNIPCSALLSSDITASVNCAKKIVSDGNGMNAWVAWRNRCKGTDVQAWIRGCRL

Binder | Kd [2] [nM] | further results
B1 | – | binding result (lysozyme (Sigma) [1]): binds
B2 | 60 | –
B3 | – | binding result (lysozyme (Sigma) [3]): binds
B4 | 10 | –
